The record followed here is patent US20230192887A1 (published 2023).

For experiment [1], the target named is HER2 on HER2^+ tumor cell lines (BT474, OE19, ZR75) (UniProt P04626 23-1255, limits assumed). As to the kind of experiment: cell-based or functional assay.
Experiment [2] deals with T1, recombinant human TfR apical domain (human, UniProt P02786 198-378).
T1 construct: also called transferrin receptor protein 1 apical domain
The experiment is described as follows: SPR (Biacore T200 or 8K); protein captured on anti-human Fab chip, recombinant human TfR apical domain as analyte; 1:1 Langmuir fit. As to the method: Affinities of the bispecific proteins were measured by SPR using a Biacore T200 or a Biacore 8K. Biacore™ Series S CM5 sensor chips were immobilized with monoclonal mouse anti-human IgG (Fc) antibody for HER2 affinity measurements or mouse anti-human Fab for TfR affinity measurements (human antibody or Fab capture kit from GE Healthcare). Serial 3-fold dilutions of analyte (recombinant HER2 extracellular domain or recombinant TfR apical domain) were injected at a flow rate of 30 μL/min. Each sample was analyzed using a 3-minute association and a 10-minute dissociation for HER2 extracellular domain binding and a 40-second association and a 3-minute dissociation for human TfR apical domain binding. After each injection, the chip was regenerated using 3 M MgCl₂ or 50 mM glycine at pH 2.0. Binding response was corrected by subtracting the RU from a flow cell capturing an irrelevant IgG at similar density. A 1:1 Languir model of simultaneous fitting of kon and koff was used for kinetics analysis. […] The two constructs are described below.

T1 sequence (P02786 198-378 limits assumed): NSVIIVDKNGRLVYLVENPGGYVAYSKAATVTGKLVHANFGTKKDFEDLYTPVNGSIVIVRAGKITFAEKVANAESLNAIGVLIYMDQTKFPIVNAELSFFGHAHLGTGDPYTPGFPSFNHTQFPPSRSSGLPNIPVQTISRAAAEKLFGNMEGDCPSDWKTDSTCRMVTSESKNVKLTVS

B1: Bispecific Protein #9 (bispecific antibody, human IgG1, kappa, L234A L235A)
heavy 1: EVQLVESGGGLVQPGGSLRLSCAASGFTFTDYTMDWVRQAPGKGLEWVADVNPNSGGSIYNQRFKGRFTLSVDRSKNTLYLQMNSLRAEDTAVYYCARNLGPSFYFDYWGQGTLVTVSSASTKGPSVFPLAPSSKSTSGGTAALGCLVKDYFPEPVTVSWNSGALTSGVHTFPAVLQSSGLYSLSSVVTVPSSSLGTQTYICNVNHKPSNTKVDKKVEPKSCDKTHTCPPCPAPEAAGGPSVFLFPPKPKDTLMISRTPEVTCVVVDVSHEDPEVKFNWYVDGVEVHNAKTKPREEQYNSTYRVVSVLTVLHQDWLNGKEYKCKVSNKALPAPIEKTISKAKGQPREPQVYTLPPSRDELTKNQVSLWCLVKGFYPSDIAVEWESYGTEWSNYKTTPPVLDSDGSFFLYSKLTVSKEEWQQGFVFSCSVMHEALHNHYTQKSLSLSPGK
heavy 2: not shown
light: not shown
In the case of B1, in experiment [1], the “IC50 (nM), BT474 + NRG1” value was found to be 3.5 nM; the “IC50 (nM), BT-474” value turned out to be 2.3 nM; the “IC50 (nM), OE19” value amounted to 1.1 nM; the “Min Cell viability (%), BT474 + NRG1” value turned out to be 37%. In experiment [1], the “Min Cell viability (%), BT-474” value turned out to be 21%; the “Min Cell viability (%), OE19” value is 57%; the “Min Cell viability (%), ZR75-30” value was 87%. Moreover, the Kd in experiment [2] worked out at 500 nM.

B2: Bispecific Protein #2 (bispecific antibody, human IgG1, kappa, L234A L235A)
heavy: B1 heavy 1
chain: not shown
light: not shown
Regarding B2, the dissociation constant Kd in experiment [2] was found to be 480 nM.
